Test results reported in publication PMC7762956 (The Journal of Biological Chemistry, 2020).

B1: murine Ifit1b with a C-terminal His8 tag (natural protein)
chain: MEQLLSPSNMSEESHKSHIHDSLDELRCHFTWELDIKDKHIHDLEIKISETEFRDPIYSIGMHNLLAYVRHLKGQQDEALQSLKEAEALIQSEQLSKRSLATWGNCAWLHYHRGSLAEAQVYLDKVEKVCKEFSSPFRYRLECAEMDCEEGWALRKCGSQNYTRAMACFERALKVEPENPEYNAGYADVAYHLDYYDGNSLQPLKKAVSVKPEDPYLKVLLALKLQDLRKTDEAEKHIKEATLTISSQNNIFGYVAKFYRRKGCVEEALGFLKKALETKPSSPYLHFQIGLCHKTQFFQMKKATSRENRKRADQSCHLAICHFKKTLELKPTYDRAYIDLAEVYAKNHQQKEAEDNFQEVLSMSNLGDYMQQEIHFRYGNFQQYYKKSEEAAITHYLKGLKIEVTSHYRDKLLKALEELAEGRKEDHVLESLSLLGLVCRLRGDTSEAMSCYEKALRLTGAVNPEF
B2: murine Ifit1 with a C-terminal His8 tag (natural protein)
chain: MGENADGDQVMENLLQLRCHFTWKLLFENNDIPDLEVRISEQVQFLDIKNPLGMHNLLAYVRHLKGQQDEALQSLKEAEALIQSEQLSKRSLATWGNCAWLHYHRGSLAEAQIYLDKVEKVCKEFSSPFRYRLECAEMDCEEGWALLKCGGGNYKQAMACFAKALKVEPENPEYNTGYAVVAYRQDLDDNFISLEPLRKAVRLNPEDPYLKVLLALKLQDLGEHVEAEAHIEEALSSTSCQSYVIRYAAKYFRRKHRVDKALHLLNRALQASPSSGYLHYQKGLCYKQQISQLRTSRNRQPRRQDNVQELAQQAIHEFQETLKLRPTFEMAYVCMAEVQAEIHQYEEAERNFQKALNNKTLVAHIEQDIHLRYGRFLQFHKQSEDKAITLYLKGLKVEEKSFAWRKLLTALEKVAERRVCQNVHLVESTSLLGLVYKLKGQEKNALFYYEKALRLTGEMNPAF

Target: the molecule itself
Assay: SEC

| Protein | stoichiometry N |
| --- | --- |
| B1 | 2 |
| B2 | 2 |
